According to paper PMC3826990:

Target: His-Nudel^1–201 (UniProt Q9GZM8)
Experiment: ITC

UniProt Q9GZM8, sequence (Q9GZM8 1-201): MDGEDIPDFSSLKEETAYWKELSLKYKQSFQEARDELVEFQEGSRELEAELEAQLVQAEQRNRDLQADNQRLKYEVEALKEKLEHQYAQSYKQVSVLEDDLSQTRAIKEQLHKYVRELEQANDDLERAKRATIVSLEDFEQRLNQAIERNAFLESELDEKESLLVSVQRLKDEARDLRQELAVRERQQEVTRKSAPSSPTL

| Kd | Substance |
| --- | --- |
| 7.8 µM | His-DIC (natural protein) |
| 0.41 µM | His-tagged Lis1 (from UniProt P43034 1-410) (natural protein) |
